Test results reported in patent publication US20200164071A1 (GENSUN BIOPHARMA, published 2020).
Positions count from the first letter of the chain named. Each block holds one binder with its values, some of them ahead of it.

Columns and labels:
[1] = biological target: T1, human TIGIT on CHO-K1 cells (human, UniProt Q495A1 23-244); test: flow cytometry blocking assay: PVR (hPVR-mIg, m14, by Examples 4 and 6) on human TIGIT CHO-K1 cells (Example 16); title: Blocking PVR binding to TIGIT
T1 construct: also called hu TIGIT; TIGIT+CHO-K1 cells
T1 sequence: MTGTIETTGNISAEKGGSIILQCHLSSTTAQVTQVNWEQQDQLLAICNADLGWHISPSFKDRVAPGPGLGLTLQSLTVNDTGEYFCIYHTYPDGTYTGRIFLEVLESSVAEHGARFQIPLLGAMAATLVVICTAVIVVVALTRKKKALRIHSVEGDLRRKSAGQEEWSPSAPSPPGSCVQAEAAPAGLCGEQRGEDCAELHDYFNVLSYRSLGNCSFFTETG

[2] = biological target: T1, human TIGIT on CHO-K1 cells; test: flow cytometry competition with biotinylated hPVR-mIg on CHO-K1 cells expressing human TIGIT
Procedure: The cells were washed 2 times before staining with PE streptavidin (BioLegend) for 20 min at 4 C. The cells were then washed, resuspended in 30 μl 7 AAD solution, and 35 μl of 10% neutral buffered formalin solution was added. The cells were then incubated for 15 min. Flow cytometry was performed and IC50 was calculated using iQue intellicyt system.

[3] = biological target: T2, human PD-1 on CHO-K1 cells (human, UniProt Q15116 25-288); test: flow cytometry blocking assay: FITC human PD-L1-Fc on human PD-1 CHO-K1 cells (Examples 11 and 16); title: Blocking PD-L1 binding to PD-1
T2 construct: also called Human PD-1 transfected CHO-K1 cells
Procedure: (§1) Human or Cyno PD-1 transfected CHO-K1 cells were washed with FACS buffer (0.5% BSA 2 mM EDTA in PBS) and re-suspended at a concentration of 10⁶ cells/ml. […] The cells were then washed and re-suspended in 30 μl 7 AAD solution; 35 μl 10% neutral buffered formalin solution was then added and incubated for 15 mins. before analysis using the iQue intellicyt system.

[4] = biological target: T2, human PD-1 on CHO-K1 cells; test: flow cytometry blocking assay: FITC human PD-L1-Fc on human PD-1 CHO-K1 cells (Example 11; the legend paragraph 42 calls it binding to hu PD-L1)
Procedure: as §1

[5] = biological target: T3, cyno PD-1 on CHO-K1 cells (cyno); test: flow cytometry blocking assay of Example 11, PD-L1 on cyno PD-1 CHO-K1 cells; cyno taken from the legend paragraph 42 ('cyno-hu'), while Example 11 speaks of human PD-1 and human PD-L1 for this figure
T3 construct: whole, on cells; also called cyno hu PD-1; Cyno PD-1 transfected CHO-K1 cells
Procedure: as §1

[6] = biological target: T2, human PD-1 on CHO-K1 cells; test: flow cytometry blocking assay: FITC human PD-L1-Fc on human PD-1 CHO-K1 cells (Example 11)
Procedure: as §1

[7] = biological target: T4, His tagged human PD-1 protein (human, UniProt Q15116 25-170, limits assumed); test: bio-layer interferometry (Octet RED96), antibody on anti-human IgG capture biosensors, His tagged human PD-1 as analyte, 1:1 global fit (Example 12)
T4 construct: also called huPD-1-His; not shown: His tag
Procedure: […] was carried out using the Octet RED96 system (ForteBio Octet RED96 System) to characterize the binding kinetics of antibodies against His tagged human PD-1 protein. 20 nM of antibody was loaded onto the anti-human IgG capture biosensors. Association of analyte (His tagged human PD-1 protein) was observed by placing the biosensors in wells containing 2 or 3 fold serial dilution of analytes (72 nM being the highest concentration) for 5 mins. Dissociation was measured after transfer of the biosensors into kinetic buffer alone and monitoring of the interferometry signal for 10 minutes. The observed on and off rates (Ka and Kd) were fit using a 1:1 binding global fit model comprising at least 5 concentrations tested, and the equilibrium binding constant KD was then calculated.

T4 sequence (Q15116 25-170 limits assumed): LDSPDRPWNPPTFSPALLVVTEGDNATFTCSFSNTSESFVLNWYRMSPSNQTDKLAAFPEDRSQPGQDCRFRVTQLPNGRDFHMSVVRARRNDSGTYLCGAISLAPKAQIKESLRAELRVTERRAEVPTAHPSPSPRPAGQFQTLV
T2 sequence (Q15116 25-288): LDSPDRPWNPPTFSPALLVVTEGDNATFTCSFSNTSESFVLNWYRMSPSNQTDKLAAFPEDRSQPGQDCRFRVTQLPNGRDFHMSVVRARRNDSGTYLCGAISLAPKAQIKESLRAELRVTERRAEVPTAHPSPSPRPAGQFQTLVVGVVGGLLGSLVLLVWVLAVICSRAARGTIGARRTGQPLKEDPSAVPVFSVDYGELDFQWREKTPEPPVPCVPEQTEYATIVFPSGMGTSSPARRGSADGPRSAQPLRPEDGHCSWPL

B2: T-05 (antibody, V domains shown)
VH: EVQLKQSGAEVKKPGATVKISCKVSGYTFTDQAIHWVQQAPGKGLEWMGYIYPRDGSTKYNETFKGRVTITADTSTDTAYMELSSLRSEDTAVYFCARGMLRWFAYWGQGTLVTVSS
VL: DIQMTQSPSSLSASVGDRVTITCKASQDVSTAVAWYQQKPGKAPKLLIYSASYRYTGVPSRFSGSGSGTDFTLTISSLQPEDFATYYCQQHYSTPLTFGAGTKLELK
notes: Anti-human TIGIT monoclonal antibody from mouse hybridoma; also called anti-hu TIGIT mab T-05
IC50 [2]: 0.2 to 0.46 nM

B3: T-03 (antibody, V domains shown)
VH: B2 VH with K5V, Q32H, A33T, I51F, T63K, F95Y, R98T, Y106D, V113I, S117V
VL: B2 VL with A32T
notes: Anti-human TIGIT monoclonal antibody from mouse hybridoma; also called anti-hu TIGIT mab T-03
IC50 [2]: 0.26 to 0.52 nM

B7: PD-06 (antibody, V domains shown)
VH: QVQLVQSGAEVKKPGASVKVSCKASGYTFTSYYIHWVRQAPGQRLEWMGWIFPGSGNSKYNENFKGRVTITRDTSASTAYMELSSLRSEDTAVYFCASETYDYGDYWGQGTLVTVSS
VL: DIQMTQSPSSLSASVGDRVTITCKASQNVGTNVAWYQQKPGKAPKSLIYSASYRYSGVPSRFSGSGSGTDFTLTISSLQPEDFATYFCQQYYSYPYTFGQGTKLEIK
notes: also called anti-PD-1 mab PD-06
IC50 [4]: 0.65 nM | IC50 [5]: 2.14 nM

B9: PD-02 mab (antibody, V domains shown)
VH: QVQLVQSGAEVKKPGASVKVSCKASDYTFTNSYLYWLRQAPGQGLEWMGGINPSNGGTNFNEKFKTRTTSTRDTSISTAYMELSRLRSDDTVVYYCTRRDYNYDGGFDSWGQGTLVTVSS
VL: DIQMTQSPSSLSASVGDRVTFTCRASSTLYSNYLHWYQQKPGKAPKLLIYRASFLASGVPSRFSGSGSGTDFTLTISSLQPEDFATYYCQQGSSIPLTFGGGTKVEIK
IC50 [6]: 2.05 nM | IC50 [4]: 0.54 nM | IC50 [5]: 1.72 nM | Kd [7]: 3.7 nM | koff [7]: 0.000395 s⁻¹ | kon [7]: 106000 M⁻¹ s⁻¹

B10: PD-04 (antibody, V domains shown)
VH: B9 VH with L34I, L37V, T68V, T97A
VL: B9 VL with T28S
notes: also called anti-PD-1 mab PD-04
IC50 [4]: 0.82 nM | IC50 [5]: 2.15 nM

B12: T-02 (antibody, V domains shown)
VH: QVKLQESGPGLVKPSQTLSLTCTVTGYSITSDYAWNWIRQPPGKGLEWIGYITYSGGTSYNPSLKSRVTISVDTSKNQFSLKLSSVTAADTAVYSCARRQIGLGFTYWGQGTLVTVSA
VL: DIQMTQSPSSLSASVGDRVTIPCKASQDLSTAVAWYQQKPGKAPKLLIYSSSYRYTGVPSRFSGSGSGTDFTLTISSLQPEDFATYYCQQSYSTPQQHYSTPWTFGEGTKLEIK
notes: Anti-human TIGIT monoclonal antibody from mouse hybridoma; also called anti-hu TIGIT mab T-02
IC50 [2]: 0.35 to 0.71 nM

Second part, the binder after the results:

IC50 [1]: 0.4 nM
B1: TP-M10T8P5 (TP-92) (bispecific antibody, human IgG4 S228P)
heavy: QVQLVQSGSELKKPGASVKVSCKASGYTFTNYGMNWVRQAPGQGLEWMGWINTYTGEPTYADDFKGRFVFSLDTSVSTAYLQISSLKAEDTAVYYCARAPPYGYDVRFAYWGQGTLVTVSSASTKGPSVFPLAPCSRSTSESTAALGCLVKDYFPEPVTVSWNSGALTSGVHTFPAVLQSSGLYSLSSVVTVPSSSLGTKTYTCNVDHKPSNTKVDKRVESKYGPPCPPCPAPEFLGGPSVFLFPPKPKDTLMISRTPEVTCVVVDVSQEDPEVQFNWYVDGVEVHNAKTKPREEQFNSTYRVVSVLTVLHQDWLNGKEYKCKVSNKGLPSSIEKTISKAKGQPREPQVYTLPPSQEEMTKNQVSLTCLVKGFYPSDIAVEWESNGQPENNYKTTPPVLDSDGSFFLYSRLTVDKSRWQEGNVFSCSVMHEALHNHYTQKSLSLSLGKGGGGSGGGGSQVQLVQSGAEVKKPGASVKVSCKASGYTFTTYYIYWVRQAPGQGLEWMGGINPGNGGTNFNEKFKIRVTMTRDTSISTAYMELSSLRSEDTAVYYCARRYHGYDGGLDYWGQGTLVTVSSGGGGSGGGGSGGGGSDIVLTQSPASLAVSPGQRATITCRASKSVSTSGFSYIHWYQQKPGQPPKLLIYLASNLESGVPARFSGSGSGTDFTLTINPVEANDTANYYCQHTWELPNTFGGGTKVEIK
light: DVVMTQSPLSLPVTLGQPASISCRSSQSIVHSNGNTYLEWFQQRPGQSPRVLIYKVSDRFSGVPDRFSGSGSGTDFTLKISRVEAEDVGVYYCFQGSHVPWTFGRGTKLEIK
notes: Anti-TIGIT x anti-PD-1; The tie is in embodiment wording ('about 80% to about 100% homologous to')

IC50 [2]: 0.5 nM
B4: T-07 (antibody, V domains shown)
VH: EVQLQESGPGLVKPSDTLSLTCAVSGYSITSDSAWNWIRQPPGKGLEWIGYITYSGSTNYNPSLRSRVTMSVDTSKNQFSLKLSSVTAVDTAVYYCTRRQVGLGFAYWGQGTLVTVSA
VL: B2 VL with Y55F, V58A, A84G, T85I, Q90H, L96W, A100G, L106F
notes: Anti-human TIGIT monoclonal antibody from mouse hybridoma; also called anti-hu TIGIT mab T-07

IC50 [2]: 0.84 nM
B5: T-06 (antibody, V domains shown)
VH: B12 VH with K3Q, T25S, Y27G, I29V, T30S, G57S, S95Y, I101V, T106A
VL: B2 VL with R54H, L96W, A100G, L106I
notes: Anti-human TIGIT monoclonal antibody from mouse hybridoma; also called anti-hu TIGIT mab T-06

IC50 [3]: 1.8 nM | IC50 [1]: 0.21 nM
B6: TP-M8T10P1 (TP-83) (bispecific antibody)
heavy: QVQLVQSGAEVKKPGASVKVSCKASGYTFTSYYMHWVRQAPGQGLEWMGIINPSGGRTSYAQMFQGRVTMTRDTSTSTVYMELSSLRSEDTAVYYCARDREEQWPVGGFDYWGQGTLVTVSS
light: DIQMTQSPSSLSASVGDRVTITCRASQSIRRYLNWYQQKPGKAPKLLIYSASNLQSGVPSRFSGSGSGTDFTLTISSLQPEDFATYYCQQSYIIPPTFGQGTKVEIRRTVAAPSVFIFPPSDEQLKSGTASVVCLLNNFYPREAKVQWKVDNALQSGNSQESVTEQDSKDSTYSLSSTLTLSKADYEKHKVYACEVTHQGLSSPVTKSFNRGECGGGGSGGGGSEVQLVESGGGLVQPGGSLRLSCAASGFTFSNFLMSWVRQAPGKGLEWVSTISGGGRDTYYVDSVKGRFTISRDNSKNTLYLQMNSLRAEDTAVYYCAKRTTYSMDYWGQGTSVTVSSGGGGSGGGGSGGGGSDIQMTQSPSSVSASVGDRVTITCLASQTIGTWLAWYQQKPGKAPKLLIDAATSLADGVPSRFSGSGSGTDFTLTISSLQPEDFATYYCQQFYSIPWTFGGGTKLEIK
notes: as for B1

IC50 [3]: 1.4 nM | IC50 [1]: 0.4 nM
B8: TP-M9T10P1 (TP-93) (bispecific antibody, human IgG4 S228P, kappa)
heavy: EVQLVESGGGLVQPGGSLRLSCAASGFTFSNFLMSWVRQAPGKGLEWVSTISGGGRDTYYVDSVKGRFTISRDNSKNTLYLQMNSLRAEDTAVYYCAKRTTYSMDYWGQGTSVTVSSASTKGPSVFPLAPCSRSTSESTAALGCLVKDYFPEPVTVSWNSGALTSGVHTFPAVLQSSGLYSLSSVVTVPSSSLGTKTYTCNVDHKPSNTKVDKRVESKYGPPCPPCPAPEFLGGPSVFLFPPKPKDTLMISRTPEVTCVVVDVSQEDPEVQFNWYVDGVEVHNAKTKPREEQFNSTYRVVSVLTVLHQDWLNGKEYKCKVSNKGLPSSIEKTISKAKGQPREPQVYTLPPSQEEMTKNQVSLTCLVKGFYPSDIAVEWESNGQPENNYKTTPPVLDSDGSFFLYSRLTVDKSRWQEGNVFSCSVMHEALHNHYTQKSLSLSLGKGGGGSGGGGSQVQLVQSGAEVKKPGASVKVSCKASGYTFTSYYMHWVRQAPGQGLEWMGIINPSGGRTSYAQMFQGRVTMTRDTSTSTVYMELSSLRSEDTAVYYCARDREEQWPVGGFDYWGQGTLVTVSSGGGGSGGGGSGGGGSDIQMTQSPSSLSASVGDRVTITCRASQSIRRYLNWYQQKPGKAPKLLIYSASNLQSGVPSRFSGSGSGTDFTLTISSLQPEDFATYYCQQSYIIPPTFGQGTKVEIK
light: DIQMTQSPSSVSASVGDRVTITCLASQTIGTWLAWYQQKPGKAPKLLIDAATSLADGVPSRFSGSGSGTDFTLTISSLQPEDFATYYCQQFYSIPWTFGGGTKLEIKRTVAAPSVFIFPPSDEQLKSGTASVVCLLNNFYPREAKVQWKVDNALQSGNSQESVTEQDSKDSTYSLSSTLTLSKADYEKHKVYACEVTHQGLSSPVTKSFNRGEC
notes: as for B1

IC50 [2]: 0.36 to 0.42 nM
B11: T-09 (antibody, V domains shown)
VH: QVTLKESGPTLVKPTQTLTLTCTFSGFSLSTFAMGVGWIRQPPGKALEWLAHIWWDDDKYYNPALKSRLTITKDTSKNQVVLTMTNMDPVDTATYYCARMDYSYFAWFAYWGQGTLVTVSS
VL: QAVVTQEPSLTVSPGGTVTLTCRSSTGAVTTSNYANWVQQKPGQLFRGLIGGTNNRAPWVPARFSGSLIGDKAALTLSGVQPEDEAEYFCALWYSNHWVFGGGTKLTVL
notes: Anti-human TIGIT monoclonal antibody from mouse hybridoma; also called anti-hu TIGIT mab T-09
